Measured values published in paper PMC8490154, “Mass-sensitive particle tracking to elucidate the membrane-associated MinDE reaction cycle” (Nature Methods, 2021).
Several values for one entry are separate records, joined by “and”; a condition that tells them apart may be missing. Equal entries are not always repeated. Where two headings read alike, the source gives them in different places. Values belong to the molecule of their own block, whether it stands above or below them.

How the values were obtained:
[1] = biological target: MinD (Escherichia coli) (UniProt P0AEZ3); assay: mass-sensitive particle tracking (MSPT, iSCAT) on a supported lipid bilayer; MinD or MinD D40A alone, 50-200 nM, 0.5 mM ATP, Min buffer, SLB of 70 mol% DOPC / 30 mol% DOPG, room temperature (23 ± 2 °C); particle densities 0.03-0.8 µm^-2; monomers (33 kDa) not quantitatively detectable
[2] = biological target: MinD (Escherichia coli) (UniProt P0AEZ3); assay: as above; remark: listed apart in the source
[3] = biological target: the molecule itself; assay: mass-sensitive particle tracking (MSPT, iSCAT) on a supported lipid bilayer; co-reconstitution of equimolar MinD and MinE, 50-200 nM each, 0.5 mM ATP, Min buffer, SLB of 70 mol% DOPC / 30 mol% DOPG, room temperature; particle densities 0.1-0.8 µm^-2
[4] = biological target: the molecule itself; assay: mass-sensitive particle tracking (MSPT, iSCAT) on a supported lipid bilayer; MinD or MinD D40A alone, 50-200 nM, 0.5 mM ATP, Min buffer, SLB of 70 mol% DOPC / 30 mol% DOPG, room temperature (23 ± 2 °C); particle densities 0.03-0.8 µm^-2; monomers (33 kDa) not quantitatively detectable

- stoichiometry N [1]: 3 and 4
- stoichiometry N [2]: 2
Molecule: MinD (from UniProt P0AEZ3 1-270) (natural protein)

B1: MinE (natural protein, Escherichia coli, UniProt P0A734 1-88, looked up)
chain: MALLDFFLSRKKNTANIAKERLQIIVAERRRSDAEPHYLPQLRKDILEVICKYVQIDPEMVTVQLEQKDGDISILELNVTLPEAEELK
notes: MinE of the Escherichia coli Min system; A purification tag is probably present (surmise)
- binding result [3]: binds

B2: MinD D40A (natural protein, Escherichia coli, UniProt P0AEZ3 1-270, looked up)
chain: MARIIVVTSGKGGVGKTTSSAAIATGLAQKGKKTVVIDFAIGLRNLDLIMGCERRVVYDFVNVIQGDATLNQALIKDKRTENLYILPASQTRDKDALTREGVAKVLDDLKAMDFEFIVCDSPAGIETGALMALYFADEAIITTNPEVSSVRDSDRILGILASKSRRAENGEEPIKEHLLLTRYNPGRVSRGDMLSMEDVLEILRIKLVGVIPEDQSVLRASNQGEPVILDINADAGKAYADTVERLLGEERPFRFIEEEKKGFLKRLFGG
notes: ATPase MinD of the Escherichia coli Min system with D40A (impaired ATP hydrolysis); A purification tag is probably present (surmise); also called D40A mutant; MinD mutant (D40A)
- stoichiometry N [4]: 2 and 4
